Data reported in paper PMC4220463, “Direct interaction of Plk4 with STIL ensures formation of a single procentriole per parental centriole” (Nature Communications, 2014).

Biological target: T1, MBP-5Myc-HsSAS-6 full length (human, UniProt Q6UVJ0 1-657)
T1 construct: HsSAS-6 full length, cloned into a modified pENTR-1A-5Myc-MBP vector; also called MBP-HsSAS-6; source: Sf9 (baculovirus), purified (amylose resin); not shown: MBP, N-terminal, kept; 5Myc, N-terminal, kept
T1 sequence (looked up): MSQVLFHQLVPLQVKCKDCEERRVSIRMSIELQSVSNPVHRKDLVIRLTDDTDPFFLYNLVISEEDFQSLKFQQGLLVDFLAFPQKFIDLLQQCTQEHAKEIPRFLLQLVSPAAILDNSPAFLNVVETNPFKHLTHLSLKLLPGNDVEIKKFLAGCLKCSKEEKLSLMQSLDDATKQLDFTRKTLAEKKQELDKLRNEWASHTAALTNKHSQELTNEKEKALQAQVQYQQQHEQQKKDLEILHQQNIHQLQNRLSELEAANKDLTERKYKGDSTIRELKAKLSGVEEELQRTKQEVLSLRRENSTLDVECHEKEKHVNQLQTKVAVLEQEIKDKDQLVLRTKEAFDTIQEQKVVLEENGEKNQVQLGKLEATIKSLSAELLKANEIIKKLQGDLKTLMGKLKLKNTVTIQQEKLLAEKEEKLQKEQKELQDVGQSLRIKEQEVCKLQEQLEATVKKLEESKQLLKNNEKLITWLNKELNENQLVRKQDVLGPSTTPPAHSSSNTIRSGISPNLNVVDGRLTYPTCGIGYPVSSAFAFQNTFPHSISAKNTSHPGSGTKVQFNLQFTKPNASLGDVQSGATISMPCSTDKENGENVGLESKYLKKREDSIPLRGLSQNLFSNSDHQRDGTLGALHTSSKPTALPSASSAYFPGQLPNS
Test: pull-down; bacterially purified STIL fragments after an in vitro kinase reaction with Plk4ΔPEST-FLAG on anti-FLAG beads (supernatant; for N3C also the FLAG-peptide eluate) incubated with MBP-HsSAS-6 full length and pulled down with amylose resin; western blot
Details: both partners purified

binding result: binds
B1: STIL C fragment (a.a. 1,018–1,287) phosphorylated by Plk4ΔPEST-FLAG (domain or fragment, human, UniProt Q15468 1018-1287, looked up)
chain: NAHNVDHASVLACISPEAVISGLNCMSFANVGMSGLSPNGVDLSMEANAIALKYLNENQLSQLSVTRSNQNNCDPFSLLHINTDRSTVGLSLISPNNMSFATKKYMKRYGLLQSSDNSEDEEEPPDNADSKSEYLLNQNLRSIPEQLGGQKEPSKNDHEIINCSNCESVGTNADTPVLRNITNEVLQTKAKQQLTEKPAFLVKNLKPSPAVNLRTGKAEFTQHPEKENEGDITIFPESLQPSETLKQMNSMNSVGTFLDVKRLRQLPKLF
modifications: phosphorylated in vitro by Plk4ΔPEST-FLAG: S1061, S1116, S1181, T1238, T1250
notes: human STIL C fragment, a.a; 1,018–1,287; also called GST-HA-STIL C; C-terminal fragment of STIL; source: E. coli BL21 gold (DE3), purified (glutathione sepharose), then phosphorylated in vitro by Plk4ΔPEST-FLAG; not shown: HA, N-terminal, kept
